Here are results for 1 substance from article PMC6332120.

As a reminder, the stoichiometry N is a count of units in the complex or per binding partner.

The target of this assay is thioredoxin glutathione reductase (TGR) from Mesocestoides vogae (Mesocestoides vogae (endogenous in tetrathyridium larvae)). Kind of assay: SEC; 25%-50% ammonium sulfate fraction of the larval extract, dialysed against PBS, on HiLoad 16/600 Superdex 200 pg; TR and GR activities traced in the fractions. (In gel filtration, larger molecules generally elute earlier.)

With “thioredoxin glutathione reductase (TGR) from Mesocestoides vogae (enzyme)”, the stoichiometry N was 2.
